Patent US20250326791A1 (published 2025)
Bridges are numbered along the chain shown (N, C = ends). Where no end group is shown, it is not given here. [ ]: non-standard residue; d: D form.

Columns and labels:
Assay in all cases: protein binding radioassay
µ opioid receptor (MOR) = target: µ opioid receptor (MOR)
δ opioid receptor (DOR) = target: δ opioid receptor (DOR)
κ opioid receptor (KOR) = target: κ opioid receptor (KOR)

| Binder | Kd (µ opioid receptor (MOR)) | Kd (δ opioid receptor (DOR)) | Kd (κ opioid receptor (KOR)) |
| --- | --- | --- | --- |
| Y[dA]GF[dL]KCFRYPNGVLACT (disulfide 7-17, 18 residues) [DADLE-OL II] | 123 nM | 275 nM | 1080 nM |
| YASPKCFRY[dA]GF[dL]LACT (disulfide 6-16) [DADLE-OL] | 3540 nM | 64 nM | > 10000 nM |
